Reference: patent US7256012B2, “Fluorogenic protease substrates based on dye-dimerization” (3M Innovative Properties Company, priority 1997, dated 2007)

Experiments:
[1] = Fluorescence of the intact dual-labeled conjugate versus singly labeled counterpart; format: physicochemical
Text: SEQ ID NO. 1 Val-Pro-Arg-Gly-Lys was synthesized by GeneMed Biotechnologies (South San Francisco, Calif.) and purified on reverse phase high performance liquid chromatography (HPLC). Its chemical identity was confirmed by Fast Atom Bombardment (FAB) mass spectroscopy and amino acid analysis. The peptide was reacted overnight with tetramethylrhodamine succimidyl ester in 0.1M sodium bicarbonate, pH 8.3. The reaction mixture was purified on reversed phase HPLC (C-18 column, particle size 15 μm, Waters Corp., Milford, Mass.). All chemically reactive dyes were purchased from Molecular Probes, Eugene, Oreg. The dye-peptide conjugate had the chemical structure of SEQ ID NO. 2 TMR-Val-Pro-Arg-Gly-Lys-TMR (designated T-VPRGK-T in FIG. 2) as shown in Formula I, below. A composite gradient of acetonitrile (ACN) in water was used to purify this conjugate. In a typical elution, the acetonitrile content was increased from 15% to 30% during the initial 15 minutes, followed by a 10-minute isocratic elution at 30% ACN, a 5-minute gradient to 50%, then 5-minute isocratic elution at 50% ACN. All solvents contained 0.1% trifluoroacetic acid. The molecular weight of the purified conjugate, determined by FAB mass spectroscopy, was 1379 which was the calculated molecular mass based on the elemental composition of C74H85N13O14.

[2] = test system: Vibrio parahaemolyticus; experiment: Use of fluorogenic protease substrate to detect Vibrio parahaemolyticus (cleavage by trypsin-like enzyme); format: cell-based; settings: Vibrio parahaemolyticus cells, 1 mM EDTA, 50 mM phosphate buffer pH 7.2, incubated overnight; with vs without cells
Procedure: Vibrio parahaemolyticus used in these experiments was a quality control strain for the Transport Swab System of Becton Dickinson Microbiology Systems (Cockeysville, Md.). It was purchased from American Tissue Culture Collection (ATCC accession no. 49398). Cells were grown at 37° C. in nutrient broth with 3 percent sodium chloride. Ten ml of overnight culture was centrifuged. Broth was disposed and 3 ml of assay buffer added (1 mM EDTA, 50 mM phosphate buffer at pH 7.2) containing 50 μl of dual labeled conjugate of formula I, 1000 dilution (see Example 1, procedure for making labeled peptide). To ensure complete cleavage the reaction mixture was incubated overnight. Fluorescence intensity of cuvettes with and without cells was measured, (tracings C and D, respectively).

In the case of “TMR-Val-Pro-Arg-Gly-Lys-TMR (XPRGX; not fully specified; TMR dye at both ends) [T-VPRGK-T]”, the “fluorescence of dual-labeled conjugate versus singly labeled counterpart” value [1] is reported as “substantially lower fluorescence than its singly labeled counterpart” and the “change in fluorescence on cleavage by the trypsin-like enzyme” value [2] is reported as “increase in fluorescence”.
